PMC4684078

Biological target: mCherry-p62 delta PB1 (recombinant) (human)
Assay: SEC-MALS; size exclusion chromatography with static light scattering (Superdex 200 10/300, MiniDawn Treos); 25 mM HEPES pH 7.5, 500 mM NaCl, 1 mM DTT

- stoichiometry N: 3
Substance: mCherry-p62 delta PB1 (recombinant) (domain or fragment)
